The record followed here is patent US20110002926A1.

The target of test [1] is soluble HCV E2 (sE2661), HIS-tagged, baculovirus expressed (Hepatitis C virus (genotype not stated)). The experiment in a line: BIAcore SPR. (In general: Surface plasmon resonance follows binding to a sensor surface in real time, without labels.)
Test [2] concerns the target HCV E1E2 glycoproteins of genotype 1b (Con1) (Hepatitis C virus genotype 1b (Con1)) (UniProt Q9WMX2). The experiment in a line: cell-based or functional assay.
The target in test [3] is HCV E1E2 glycoproteins of genotype 2a (J6) (Hepatitis C virus genotype 2a (J6)) (UniProt P26660). The experiment in a line: cell-based or functional assay.
Test [4] deals with soluble HCV E2 (sE2661), HIS-tagged, baculovirus expressed (Hepatitis C virus (genotype not stated)). The experiment in a line: BIAcore SPR, sE2 injected over antibody.
The target is the same in test [5]. Nature of the test: BIAcore SPR, sE2 injected over antibody; lower end differs from Table 10.

Sequence of HCV E1E2 glycoproteins of genotype 1b (Con1) (Hepatitis C virus genotype 1b (Con1)) (Q9WMX2 384-746 limits assumed, chain 1 of 2): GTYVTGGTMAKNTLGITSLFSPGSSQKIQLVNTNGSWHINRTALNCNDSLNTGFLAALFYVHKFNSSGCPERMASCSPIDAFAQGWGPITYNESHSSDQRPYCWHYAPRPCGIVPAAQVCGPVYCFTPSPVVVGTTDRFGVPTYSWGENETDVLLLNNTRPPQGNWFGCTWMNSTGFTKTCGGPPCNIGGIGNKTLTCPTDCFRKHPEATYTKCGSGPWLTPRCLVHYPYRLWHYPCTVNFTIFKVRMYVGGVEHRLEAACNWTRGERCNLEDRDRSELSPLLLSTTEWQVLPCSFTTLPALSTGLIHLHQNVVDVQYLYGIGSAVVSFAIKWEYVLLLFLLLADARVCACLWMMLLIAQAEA
Sequence of HCV E1E2 glycoproteins of genotype 1b (Con1) (Hepatitis C virus genotype 1b (Con1)) (Q9WMX2 192-383 limits assumed, chain 2 of 2): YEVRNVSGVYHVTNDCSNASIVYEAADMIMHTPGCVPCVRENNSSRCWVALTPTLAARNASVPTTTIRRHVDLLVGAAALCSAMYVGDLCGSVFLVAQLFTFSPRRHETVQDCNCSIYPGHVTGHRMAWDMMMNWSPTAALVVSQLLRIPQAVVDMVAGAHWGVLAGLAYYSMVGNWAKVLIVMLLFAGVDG

Take AP33 Fab: the Kd in test [1] stood at 50 nM.

Take AP33 monoclonal antibody: the figures for the EC50 of HCVpp entry into Huh-7.5 cells (luciferase) in test [2] and in test [3] were 1.42 µg/mL and 2.07 µg/mL, respectively. Further, the Kd in test [4] fell in the range of 5 to 8 nM; in test [5], 0.5 to 8 nM.

In general, Kd refers to the equilibrium constant for the complex coming apart. Read a high Kd as a looser complex.
